The values below come from publication PMC3407115, “Characterization of Danio rerio Mn^2+-Dependent ADP-Ribose/CDP-Alcohol Diphosphatase, the Structural Prototype of the ADPRibase-Mn-Like Protein Family” (PLoS ONE, 2012).

Substitutions are numbered along the chain they refer to. Numbers in names are those of the source.

One data set deals with T1, rat ADPRibase-Mn (Rattus norvegicus, UniProt Q5M886).
T1 construct: gene Adprm
T1 sequence (Q5M886 1-337): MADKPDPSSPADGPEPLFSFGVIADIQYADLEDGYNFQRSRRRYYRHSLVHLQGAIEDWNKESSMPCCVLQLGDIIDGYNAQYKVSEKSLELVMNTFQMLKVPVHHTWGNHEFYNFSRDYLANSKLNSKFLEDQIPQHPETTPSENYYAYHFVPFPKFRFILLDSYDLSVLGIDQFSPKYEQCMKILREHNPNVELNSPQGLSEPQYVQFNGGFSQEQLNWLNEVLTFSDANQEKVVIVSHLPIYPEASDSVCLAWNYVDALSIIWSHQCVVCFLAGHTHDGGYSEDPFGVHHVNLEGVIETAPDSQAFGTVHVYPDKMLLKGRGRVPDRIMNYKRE
Put plainly: hydrolysis assay. As to conditions: behaves as with the zebrafish enzyme; no number given. It is filed as biochemical.

Substrate in data set [1]: C[N+](C)(C)CCOP(=O)(O)OP(=O)([O-])OC[C@H]1O[C@@H](n2ccc(N)nc2=O)[C@H](O)[C@@H]1O
The data set is described as follows: phosphate release coupled to alkaline phosphatase; Michaelis-Menten fit. Particulars: 5 mM MnCl2, 50 mM Tris-HCl pH 7.5. It is filed as biochemical, Danio rerio. From the text:
(§1) phosphate release coupled to alkaline phosphatase; Michaelis-Menten fit on zebrafish ADPRibase-Mn

Substrate in data set [2]: NCCOP(=O)(O)OP(=O)(O)OC[C@H]1O[C@@H](n2ccc(N)nc2=O)[C@H](O)[C@@H]1O
Described as above. Type of data set: biochemical, Danio rerio. As to conditions: 5 mM MnCl2, 50 mM Tris-HCl pH 7.5.
Source text: as §1

Substrate in data set [3]: Nc1ccn([C@@H]2O[C@H](COP(=O)(O)OP(=O)(O)OC[C@H](O)CO)[C@@H](O)[C@H]2O)c(=O)n1
Described as above. Type of data set: biochemical, Danio rerio. As to conditions: 5 mM MnCl2, 50 mM Tris-HCl pH 7.5.
Source text: as §1

Substrate in data set [4]: Nc1ncnc2c1ncn2[C@@H]1O[C@H](CO)[C@H]2OP(=O)(O)O[C@H]21
Described as above. Type of data set: biochemical, Danio rerio. Particulars: 5 mM MnCl2, 50 mM Tris-HCl pH 7.5, total activity (P-O2′ plus P-O3′ hydrolysis).
Source text: as §1

Substrate in data set [5]: Nc1ncnc2c1ncn2[C@@H]1O[C@H](COP(=O)(O)OP(=O)(O)O)[C@@H](O)[C@H]1O
The description is as above. It is filed as biochemical, Danio rerio. Particulars: 5 mM MnCl2, 50 mM Tris-HCl pH 7.5.
Source text: as §1

Substrate in data set [6]: N=c1c2ncn3c2ncn1[C@@H]1O[C@H](COP(=O)(O)OP(=O)(O)OC[C@H]2O[C@@H]3[C@H](O)[C@@H]2O)[C@@H](O)[C@H]1O
The data set is described as follows: estimated from inhibition of ADP-ribose hydrolysis by cADPR (equation II). As to conditions: competitive inhibition assumed, Ki taken as Km; 160 µM cADPR against 80 µM ADP-ribose. It is filed as biochemical, Danio rerio. From the text:
estimated from inhibition of ADP-ribose hydrolysis by cADPR (equation II) on zebrafish ADPRibase-Mn

`Nc1ncnc2c1ncn2[C@@H]1O[C@H](CO)[C@H]2OP(=O)(O)O[C@H]21` [2′,3′-cAMP]: on rat ADPRibase-Mn, the hydrolysis assay result is “we did it now and found them to behave as with the zebrafish enzyme”.

B1: zebrafish ADPRibase-Mn (Danio rerio; M1S) (protein)
chain: SEDPVFTFGLIADVQYADIEDGENYLRTRRRYYRGSADLLRDAVLQWRRERVQCVVQLGDIIDGHNRRRDASDRALDTVMAELDACSVDVHHVWGNHEFYNFSRPSLLSSRLNSAQRTGTDTGSDLIGDDIYAYEFSPAPNFRFVLLDAYDLSVIGREEESEKHTHSWRILTQHNHNLQDLNLPPVSVGLEQRFVKFNGGFSEQQLQWLDAVLTLSDHKQERVLIFSHLPVHPCAADPICLAWNHEAVLSVLRSHQSVLCFIAGHDHDGGRCTDSSGAQHITLEGVIETPPHSHAFATAYLYEDRMVMKGRGRVEDLTITYS
notes: full-length ORF (BC054642 region 60-1028), N-terminal Met replaced by Ser; 8-His-MBP-TEV fusion expressed in E. coli BL21, tag cut with TEV protease
As for B1, the Km in data set [1] was 12 ± 3 mM; in data set [2], 3.9 ± 1.3 mM; in data set [3], 2 ± 1.4 mM; in data set [4], 0.76 ± 0.05 mM; in data set [5], 2.65 ± 1.3 mM; in data set [6], 0.19 ± 0.025 mM. For the same molecule, the kcat in data set [1] is 67.2 s⁻¹; in data set [2], 125 s⁻¹; in data set [3], 95.6 s⁻¹; in data set [4], 16.9 s⁻¹; in data set [5], 1.8 s⁻¹; in data set [6], 0.005 s⁻¹. The kcat/Km is 5600 ± 800 M⁻¹ s⁻¹ in data set [1]; 32000 ± 300 M⁻¹ s⁻¹ in data set [2]; 48000 ± 700 M⁻¹ s⁻¹ in data set [3]; 22000 ± 3000 M⁻¹ s⁻¹ in data set [4]; 660 ± 70 M⁻¹ s⁻¹ in data set [5]; 28 ± 3 M⁻¹ s⁻¹ in data set [6].

B2: zebrafish ADPRibase-Mn (Danio rerio; H97A/M1S) (protein)
chain: B1 chain with H97A
notes: as for B1
As for B2, the Km in data set [1] worked out at 43 ± 8 mM; in data set [2] it was 31 ± 0.8 mM; in data set [3] it was 6.3 ± 0.9 mM; in data set [4], 1.7 ± 0.24 mM; in data set [5], 19 ± 0.7 mM. The kcat in data set [1] was determined as 0.8 s⁻¹; in data set [2], 2.1 s⁻¹; in data set [3], 0.8 s⁻¹; in data set [4], 29.7 s⁻¹; in data set [5] it was 0.2 s⁻¹. For the same molecule, the kcat/Km in data set [1] amounted to 20 ± 5 M⁻¹ s⁻¹; in data set [2] it was 70 ± 20 M⁻¹ s⁻¹; in data set [3], 120 ± 30 M⁻¹ s⁻¹; in data set [4] it was 18000 ± 1000 M⁻¹ s⁻¹; in data set [5] it was 11 ± 5 M⁻¹ s⁻¹.
